Experimental data taken from patent US20020072115A1.

Molecular target: α6 integrin (mouse) (UniProt Q61739)
Test: cell-based or functional assay

Chain of UniProt Q61739 (Q61739 24-1091): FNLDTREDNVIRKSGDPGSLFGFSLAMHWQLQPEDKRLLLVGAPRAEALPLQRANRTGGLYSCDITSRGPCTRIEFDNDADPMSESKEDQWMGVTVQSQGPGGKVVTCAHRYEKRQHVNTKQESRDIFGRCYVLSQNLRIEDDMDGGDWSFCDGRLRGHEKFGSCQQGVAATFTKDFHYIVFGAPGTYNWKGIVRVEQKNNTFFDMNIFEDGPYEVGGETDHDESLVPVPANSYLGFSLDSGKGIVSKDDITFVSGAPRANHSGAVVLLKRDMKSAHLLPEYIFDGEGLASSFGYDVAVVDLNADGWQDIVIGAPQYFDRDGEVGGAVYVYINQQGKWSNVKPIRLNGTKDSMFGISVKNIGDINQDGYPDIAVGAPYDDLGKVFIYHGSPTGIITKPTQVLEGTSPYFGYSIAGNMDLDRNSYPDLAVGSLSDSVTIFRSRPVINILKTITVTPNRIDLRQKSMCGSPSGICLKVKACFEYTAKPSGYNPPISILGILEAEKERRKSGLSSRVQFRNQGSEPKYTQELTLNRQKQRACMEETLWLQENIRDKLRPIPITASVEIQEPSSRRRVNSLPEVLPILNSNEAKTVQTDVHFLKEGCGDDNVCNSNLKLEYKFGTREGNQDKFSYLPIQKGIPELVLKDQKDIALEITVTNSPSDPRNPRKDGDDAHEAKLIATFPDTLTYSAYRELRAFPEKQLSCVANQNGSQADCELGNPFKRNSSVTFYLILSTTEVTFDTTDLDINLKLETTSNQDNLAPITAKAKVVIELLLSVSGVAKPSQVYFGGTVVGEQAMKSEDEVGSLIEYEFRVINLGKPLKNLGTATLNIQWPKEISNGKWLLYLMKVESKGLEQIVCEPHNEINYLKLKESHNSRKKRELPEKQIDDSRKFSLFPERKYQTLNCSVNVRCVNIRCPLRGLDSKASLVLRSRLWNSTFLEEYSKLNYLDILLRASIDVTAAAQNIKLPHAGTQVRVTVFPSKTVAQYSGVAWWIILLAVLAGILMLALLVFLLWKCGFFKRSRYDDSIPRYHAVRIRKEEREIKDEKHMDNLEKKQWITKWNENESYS

## Rat monoclonal antibody (clone NKI-GoH3, IgG2a)
  total cell number per well (13.5 dpc fetal mouse pancreas cells cultured with laminin-1) (cells per well): 7190
  β cell number per well (13.5 dpc fetal mouse pancreas cells cultured with laminin-1) (cells per well): 6890
